The values that follow come from article PMC6181373.

Several values for one entry are separate records, joined by “and”; a condition that tells them apart may be missing. Equal entries are not always repeated.

What all share (experiment): SPRi
Holding throughout (details): 5' disulfide, aptamer on gold chip, 10 mM HEPES, 120 mM NaCl, 10 mM KCl, 5 mM MgCl2, pH 7.4, targets in PBS with 0.1% Tween, random-DNA signal subtracted, temperature …

The target of data set [1] is LF-LDL (LDL subfraction particle; ApoB100 lipoprotein) (UniProt P04114).
In data set [2] the target is SD-LDL (small dense LDL particle; ApoB100 lipoprotein) (UniProt P04114).
Data set [3] addresses LDL particle (all LDL-P; ApoB100 lipoprotein) (UniProt P04114).
For another data set, the system named is HDL particle.
Data set [4] concerns the target LDL particle (all LDL-P; ApoB100 lipoprotein) (UniProt P04114). The source holds these as a separate data set.

The term Kd denotes a measure of binding affinity in units of concentration. Read a low Kd as a tighter complex. “AACTACATGGTATGTGGTGAACTACCTCGATTTTATATTATTTCGCTTACCAACAACTGCAGAGACGTACAATGTACCC [LDL-A1]”: the dissociation constant Kd worked out at 0.0327 nM in data set [1]; 0.302 nM in data set [2]; 0.0531 nM in data set [3]; 8.26 nM in the data set with HDL particle; 0.0214 nM in data set [4].

For the sequence “AACTACATGGTATGTGGTGAACTGTCAGCTTCTTCTATATAATTCACCTTGCCTCTCGTTCCTGACGTACAATGTACCC [LDL-A2]”, the Kd is 0.0159 nM in data set [1]; 0.0421 nM in data set [3]; 7.25 nM in the data set on HDL particle; 0.015 nM and 0.00512 nM in data set [4].

Take “AACTACATGGTATGTGGTGAACTAACCTTAATTTACCCTTGTTTTATCATTTCCATCATAGCTGACGTACAATGTACCC [LDL-A12]”: the Kd in data set [2] was 0.023 nM; in data set [3], 0.0497 nM; in the data set on HDL particle, 9.69 nM; in data set [4], 0.0108 nM and 0.0466 nM.

With “AACTACATGGTATGTGGTGAACTAAACCATTCTTGTCTCGCATTTTTCTCTTTTATATTATTTGACGTACAATGTACCC [LDL-A38]”, the Kd in data set [2] is 0.234 nM; in data set [3], 0.0455 nM; in the data set on HDL particle, 11.5 nM; in data set [4] it was 0.0207 nM and 0.0178 nM.
